Biological target: mAb 2F5
Assay: cell-based or functional assay

In the case of QQEKNEQELLELDKWASLWN (modifications not checked) [SP62 peptide (gp41 652-671), …], the IC50 of 2F5 mAb against TND-669S pseudovirus after pre-absorption with 0.3 µM peptide is reported as 0.911 µg/mL.

— patent US20120128758A1
